Laboratory results published in paper PMC3824618.

Target: T1, wild-type human cystathionine β-synthase, HIS-tagged, expressed in HEK-293 cells (human), P35520
T1 chain: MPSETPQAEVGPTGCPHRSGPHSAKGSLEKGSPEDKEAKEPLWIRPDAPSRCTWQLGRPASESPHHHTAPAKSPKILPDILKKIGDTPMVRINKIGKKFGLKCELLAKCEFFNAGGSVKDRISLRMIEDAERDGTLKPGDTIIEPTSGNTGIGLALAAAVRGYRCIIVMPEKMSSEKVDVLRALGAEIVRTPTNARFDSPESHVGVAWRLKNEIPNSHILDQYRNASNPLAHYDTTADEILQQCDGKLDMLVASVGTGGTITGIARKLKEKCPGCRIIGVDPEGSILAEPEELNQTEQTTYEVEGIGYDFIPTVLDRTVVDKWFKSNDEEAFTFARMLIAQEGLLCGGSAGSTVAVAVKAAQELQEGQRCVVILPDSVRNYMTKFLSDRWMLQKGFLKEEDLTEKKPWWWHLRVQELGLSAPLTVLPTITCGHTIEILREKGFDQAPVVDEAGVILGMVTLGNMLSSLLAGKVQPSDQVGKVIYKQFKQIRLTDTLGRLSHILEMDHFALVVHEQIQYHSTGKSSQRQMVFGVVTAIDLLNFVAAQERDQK
Experiment: native gel or EMSA
Details: remark: other sources report otherwise

B1: wild-type human cystathionine β-synthase, HIS-tagged, expressed in HEK-293 cells, P35520 1-551 (enzyme)
chain: T1 chain
With B1 the stoichiometry N was 4.
